The results in this text go back to paper PMC11809415 (2025).

What is called Kd is the free concentration of one partner at which half of the binding sites on the other are occupied at equilibrium, for simple one-to-one binding.

Sequences and labels used below:
B1: F-tractinopt–mCherry fusion [rat] / F-actin (rabbit skeletal muscle α-actin filaments) [rabbit] (parent complex)
chain 1: APRRSVGELRLLFEARAASAA
chain 2: not shown

The variants in one assay derive from B1. As to the kind of experiment: high-speed cosedimentation assay (SDS-PAGE densitometry); 2 µM F-tractin-mCherry; high-speed sedimentation, 120,000 g; point at the highest actin level (40 µM total, about 40 µM free F-actin); read off a plot.
For the variant chain 1 F13A, the response is ~0.06 fraction of F-tractin bound.

The next assay covers variants of B1. As to the kind of experiment: high-speed cosedimentation assay (SDS-PAGE densitometry); 2 µM F-tractin-mCherry; high-speed sedimentation, 120,000 g; actin 0-40 µM.
With chain 1 R3A, the Kd turned out to be 23 µM.

The variants in the next assay derive from B1. As to the kind of experiment: high-speed cosedimentation assay (SDS-PAGE densitometry); 2 µM F-tractin-mCherry; high-speed sedimentation, 120,000 g; point at the highest actin level (40 µM total, about 39 µM free F-actin); read off a plot.
In the case of chain 1 R3A, the response was ~0.44 fraction of F-tractin bound.
